{"source": "paper PMC7782693", "about": "“Structural insights into photoactivation of plant Cryptochrome-2” (Communications Biology, 2021)", "proteins": {"B1": {"name": "Arabidopsis CRY2 photolyase homologous region (PHR) domain (domain or fragment, Arabidopsis thaliana, UniProt Q96524 1-498, looked up)", "chain": "MKMDKKTIVWFRRDLRIEDNPALAAAAHEGSVFPVFIWCPEEEGQFYPGRASRWWMKQSLAHLSQSLKALGSDLTLIKTHNTISAILDCIRVTGATKVVFNHLYDPVSLVRDHTVKEKLVERGISVQSYNGDLLYEPWEIYCEKGKPFTSFNSYWKKCLDMSIESVMLPPPWRLMPITAAAEAIWACSIEELGLENEAEKPSNALLTRAWSPGWSNADKLLNEFIEKQLIDYAKNSKKVVGNSTSLLSPYLHFGEISVRHVFQCARMKQIIWARDKNSEGEESADLFLRGIGLREYSRYICFNFPFTHEQSLLSHLRFFPWDADVDKFKAWRQGRTGYPLVDAGMRELWATGWMHNRIRVIVSSFAVKFLLLPWKWGMKYFWDTLLDADLECDILGWQYISGSIPDGHELDRLDNPALQGAKYDPEGEYIRQWLPELARLPTEWIHHPWDAPLTVLKASGVELGTNYAKPIVDIDTARELLAKAISRTREAQIMIGAA", "notes": "Cryptochrome-2 (CRY2), Arabidopsis thaliana, PHR domain, residues 1-498, wild type; Expressed as a GST fusion from the pFastbac-GST vector; GST removed by TEV protease on the column; The crystal holds four copies (monomers A-D); in solution mostly monomer; also called AtCRY2-PHR; CRY2-PHR"}}, "key": {"[1]": {"target": "the molecule itself", "assay": "SEC; Superdex-200 gel filtration, 20 mM Tris pH 8.0, 200 mM NaCl, 2 mM DTT, 4% glycerol; molecular weights estimated against standards"}, "[2]": {"target": "the molecule itself", "assay": "crystal structure; hanging-drop vapor diffusion at 25 °C under continuous full-spectrum white light (40 μmol m^2 s^-1); 1.5 M sodium nitrate, 0.1 M BIS-TRIS propane pH 7.0; tetramer of four monomers A-D"}}, "data": [{"protein": "B1", "values": [{"measurement": "stoichiometry N", "setting": "[1]", "result": 2}, {"measurement": "stoichiometry N", "setting": "[2]", "result": 4}]}]}
